# Biological target: H1N1 A/PR/8/1934 (Cambridge strain) neuraminidase, recombinant soluble tetramer with tetrabrachion domain (Staphylothermus marinus | influenza A virus H1N1 A/PR/8/1934 (Cambridge strain))
# Assay: cross-linking
substance,measurement,value
"H1N1 A/PR/8/1934 (Cambridge strain) neuraminidase, recombinant soluble tetramer with tetrabrachion domain (enzyme)",stoichiometry N,4
